# How the values were obtained:
# HLA-A*68:02 = experiment: IEDB peptide-MHC binding, purified MHC/competitive/fluorescence; filed as Kd, often an IC50 or EC50 that approximates it; ≥ and ≤ were set here for values at or beyond the usual limits of such assays; conditions: source organism: Coxiella burnetii Dugway 5J108-111
# HLA-A*26:03 = experiment: as above; conditions: source organism: Coxiella burnetii Dugway 5J108-111
# HLA-B*18:01 = experiment: IEDB peptide-MHC binding, purified MHC/direct/fluorescence; filed as Kd, often an IC50 or EC50 that approximates it; ≥ and ≤ were set here for values at or beyond the usual limits of such assays; conditions: source organism: Coxiella burnetii
# HLA-A*03:01 [1] = experiment: as above; conditions: source organism: Coxiella burnetii
# HLA-B*48:01 [2] = experiment: as above; conditions: source organism: Coxiella burnetii
# HLA-B*58:01 [3] = experiment: as above; conditions: source organism: Coxiella burnetii
# HLA-B*08:02 = experiment: as above; conditions: source organism: Coxiella burnetii RSA 493
# HLA-B*46:01 [4] = experiment: as above; conditions: source organism: Coxiella burnetii
# HLA-B*40:01 [5] = experiment: as above; conditions: source organism: Coxiella burnetii
# HLA-B*08:01 [6] = experiment: as above; conditions: source organism: Coxiella burnetii RSA 493
# HLA-B*15:01 [7] = experiment: as above; conditions: source organism: Coxiella burnetii
# HLA-A*31:01 [8] = experiment: as above; conditions: source organism: Coxiella burnetii
# HLA-A*26:02 = experiment: as above; conditions: source organism: Coxiella burnetii RSA 493
# HLA-B*27:05 [9] = experiment: as above; conditions: source organism: Coxiella burnetii
# HLA-A*01:01 [10] = experiment: as above; conditions: source organism: Coxiella burnetii
# HLA-B*07:02 [11] = experiment: as above; conditions: source organism: Coxiella burnetii
# HLA-B*57:01 = experiment: as above; conditions: source organism: Coxiella burnetii
# HLA-A*11:01 [12] = experiment: as above; conditions: source organism: Coxiella burnetii
# HLA-B*15:17 [13] = experiment: as above; conditions: source organism: Coxiella burnetii
# HLA-A*26:01 = experiment: as above; conditions: source organism: Coxiella burnetii RSA 493
# HLA-A*03:01 [14] = experiment: IEDB peptide-MHC binding, purified MHC/competitive/fluorescence; filed as Kd, often an IC50 or EC50 that approximates it; ≥ and ≤ were set here for values at or beyond the usual limits of such assays; conditions: source organism: Salmonella enterica subsp. enterica serovar Typhi
# HLA-B*15:09 = experiment: as above; conditions: source organism: Salmonella enterica subsp. enterica serovar Typhi
# HLA-B*48:01 [15] = experiment: as above; conditions: source organism: Salmonella enterica subsp. enterica serovar Typhi
# HLA-B*58:01 [16] = experiment: as above; conditions: source organism: Salmonella enterica subsp. enterica serovar Typhi
# HLA-B*46:01 [17] = experiment: as above; conditions: source organism: Salmonella enterica subsp. enterica serovar Typhi
# HLA-A*02:01 = experiment: as above; conditions: source organism: Salmonella enterica subsp. enterica serovar Typhi
# HLA-B*40:01 [18] = experiment: as above; conditions: source organism: Salmonella enterica subsp. enterica serovar Typhi
# HLA-B*08:01 [19] = experiment: as above; conditions: source organism: Salmonella enterica subsp. enterica serovar Typhi
# HLA-B*15:01 [20] = experiment: as above; conditions: source organism: Salmonella enterica subsp. enterica serovar Typhi
# HLA-A*31:01 [21] = experiment: as above; conditions: source organism: Salmonella enterica subsp. enterica serovar Typhi
# HLA-A*69:01 = experiment: as above; conditions: source organism: Salmonella enterica subsp. enterica serovar Typhi
# HLA-B*38:01 = experiment: as above; conditions: source organism: Salmonella enterica subsp. enterica serovar Typhi
# HLA-B*27:05 [22] = experiment: as above; conditions: source organism: Salmonella enterica subsp. enterica serovar Typhi
# HLA-A*02:06 = experiment: as above; conditions: source organism: Salmonella enterica subsp. enterica serovar Typhi
# HLA-A*01:01 [23] = experiment: as above; conditions: source organism: Salmonella enterica subsp. enterica serovar Typhi
# HLA-B*07:02 [24] = experiment: as above; conditions: source organism: Salmonella enterica subsp. enterica serovar Typhi
# HLA-A*02:03 = experiment: as above; conditions: source organism: Salmonella enterica subsp. enterica serovar Typhi
# HLA-A*11:01 [25] = experiment: as above; conditions: source organism: Salmonella enterica subsp. enterica serovar Typhi
# HLA-B*15:17 [26] = experiment: as above; conditions: source organism: Salmonella enterica subsp. enterica serovar Typhi
# HLA-A*30:01 = experiment: as above; conditions: source organism: Salmonella enterica subsp. enterica serovar Typhi
# HLA-C*05:01 = experiment: IEDB peptide-MHC binding, purified MHC/direct/fluorescence; filed as Kd, often an IC50 or EC50 that approximates it; ≥ and ≤ were set here for values at or beyond the usual limits of such assays
# HLA-B*15:42 = experiment: IEDB peptide-MHC binding, purified MHC/competitive/fluorescence; filed as Kd, often an IC50 or EC50 that approximates it; ≥ and ≤ were set here for values at or beyond the usual limits of such assays; conditions: source organism: Human alphaherpesvirus 1
# HLA-A*32:15 = experiment: as above; conditions: source organism: Human alphaherpesvirus 1
# HLA-B*45:06 = experiment: as above; conditions: source organism: Human alphaherpesvirus 1
# HLA-B*83:01 = experiment: as above; conditions: source organism: Human alphaherpesvirus 1
# HLA-B*51:01 = experiment: IEDB peptide-MHC binding, purified MHC/direct/fluorescence; filed as Kd, often an IC50 or EC50 that approximates it; ≥ and ≤ were set here for values at or beyond the usual limits of such assays; conditions: source organism: Human alphaherpesvirus 1
sequence,measurement,setting,value
IIGLLKIFR,Kd,HLA-A*68:02,1.32 µM
same,Kd,HLA-A*26:03,≥ 20 µM
same,Kd,HLA-B*18:01,≥ 20 µM
same,Kd,HLA-A*03:01 [1],0.407 µM
same,Kd,HLA-B*48:01 [2],≥ 20 µM
same,Kd,HLA-B*58:01 [3],≥ 20 µM
same,Kd,HLA-B*08:02,≥ 20 µM
same,Kd,HLA-B*46:01 [4],≥ 20 µM
same,Kd,HLA-B*40:01 [5],≥ 20 µM
same,Kd,HLA-B*08:01 [6],≥ 20 µM
same,Kd,HLA-B*15:01 [7],≥ 20 µM
same,Kd,HLA-A*31:01 [8],0.0227 µM
same,Kd,HLA-A*26:02,≥ 20 µM
same,Kd,HLA-B*27:05 [9],≥ 20 µM
same,Kd,HLA-A*01:01 [10],≥ 20 µM
same,Kd,HLA-B*07:02 [11],≥ 20 µM
same,Kd,HLA-B*57:01,≥ 20 µM
same,Kd,HLA-A*11:01 [12],0.225 µM
same,Kd,HLA-B*15:17 [13],≥ 20 µM
same,Kd,HLA-A*26:01,≥ 20 µM
LSEEANWAF,Kd,HLA-A*03:01 [14],≥ 20 µM
same,Kd,HLA-B*15:09,≥ 20 µM
same,Kd,HLA-B*48:01 [15],≥ 20 µM
same,Kd,HLA-B*58:01 [16],0.498 µM
same,Kd,HLA-B*46:01 [17],≥ 20 µM
same,Kd,HLA-A*02:01,≥ 20 µM
same,Kd,HLA-B*40:01 [18],≥ 20 µM
same,Kd,HLA-B*08:01 [19],≥ 20 µM
same,Kd,HLA-B*15:01 [20],0.947 µM
same,Kd,HLA-A*31:01 [21],≥ 20 µM
same,Kd,HLA-A*69:01,≥ 20 µM
same,Kd,HLA-B*38:01,≥ 20 µM
same,Kd,HLA-B*27:05 [22],≥ 20 µM
same,Kd,HLA-A*02:06,0.0517 µM
same,Kd,HLA-A*01:01 [23],0.0423 µM
same,Kd,HLA-B*07:02 [24],≥ 20 µM
same,Kd,HLA-A*02:03,≥ 20 µM
same,Kd,HLA-A*11:01 [25],≥ 20 µM
same,Kd,HLA-B*15:17 [26],0.0232 µM
same,Kd,HLA-A*30:01,≥ 20 µM
same,Kd,HLA-C*05:01; source organism: Salmonella enterica subsp. enterica serovar Typhi str. CT18,0.005 µM
MPYAAHDPI,Kd,HLA-B*15:42,≥ 5 µM
same,Kd,HLA-A*32:15,0.136 µM
same,Kd,HLA-B*45:06,≥ 5 µM
same,Kd,HLA-B*83:01,0.172 µM
same,Kd,HLA-B*51:01,0.364 µM
same,Kd,HLA-C*05:01; source organism: Human alphaherpesvirus 1,≥ 20 µM

# Reference: the Immune Epitope Database (IEDB)
